Measurements taken from paper PMC3260217.

Target: NP wt (Influenza A virus H1N1 (A/WSN/33), UniProt P15682 1-498)
Assay: SPR
Conditions: protein: recombinant; tags: C-terminal 6xHis; label: 5'-biotin; single strand

UUUGUUACACACACACACGCUGUG (ssRNA) [Flu1 RNA 24-mer]
Kd: 0.041 ± 0.007 µM
